Assays:
PD1 on mouse EL4 cells = target: T1, PD1 on mouse EL4 cells (Mus musculus, UniProt Q02242); assay: Flow cytometry, binding of anti-PD1-scFv to EL4 cells; format: cell-based
T1 construct: EL4 are a mouse lymphoma cell line which expresses PD1 on its cell surface; endogenous in cells; host or cells: EL4 mouse lymphoma cells
T1 sequence (Q02242 25-288): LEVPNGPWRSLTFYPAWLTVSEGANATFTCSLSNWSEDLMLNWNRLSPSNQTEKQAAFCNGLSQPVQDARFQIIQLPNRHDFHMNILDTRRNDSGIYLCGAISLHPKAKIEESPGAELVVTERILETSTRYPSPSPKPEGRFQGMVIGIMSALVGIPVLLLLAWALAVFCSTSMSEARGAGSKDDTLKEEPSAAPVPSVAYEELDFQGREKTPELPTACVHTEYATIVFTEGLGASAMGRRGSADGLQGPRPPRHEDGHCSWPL
Protocol: To determine whether anti-PD1-scFv expressed in E. coli binds to surface PD1 on mouse EL4 cells, flow cytometric analysis was performed using EL4 cells. EL4 are a mouse lymphoma cell line which expresses PD1 on its cell surface.
EL4 cells were grown in Dulbecco's Modified Eagle's Medium (DMEM) with 10% FBS. Cells were spun down, supernatant was aspirated, pellet was resuspended in 1 ml D-PBS, transferred into chilled assay tubes (1×10^6 cells), and washed 2-3 times in D-PBS with 0.5% BSA. Cells were resuspended in PBS with 0.5% BSA, to which the purified scFv-V5 and anti-V5-FITC antibody were added and incubated for 1 hour at room temperature. Negative control left out scFv-V5. Cells were resuspended in 0.5 ml PBS and analyzed on a flow cytometer.
EL4 are a mouse lymphoma cell line which expresses PD1 on its cell surface.
EL4 cells were grown in Dulbecco's Modified Eagle's Medium (DMEM) with 10% FBS and 1% Penicillin-Streptomycin Cells were spun down, supernatant was aspirated, pellet was resuspended in 1 ml D-PBS, transferred into chilled assay tubes (1×10^6 cells), and washed 3 times in D-PBS. Cells were resuspended in D-PBS with 0.5% BSA, to which the purified scFv-V5 and anti-V5-FITC antibody were added and incubated for 1 hour at room temperature. Negative control left out secreted J43-scFv-V5. Cells were then resuspended in 0.5 ml PBS and analyzed on a flow cytometer. Results are shown in (FIG. 20).

[1] = ELISA binding assay of bacterial extracts (J43-scFv), control coatings; details: α-V5-HRP
Protocol: (§1) E. coli comprising either tet-inducible J43-Anti-PD1-scFv-V5 or wild type controls were grown overnight in LB medium. […] Same amount of tetracycline was added to wild type control cultures.
(§2) To determine whether the single-chain antibody purified from E. coli DH5α functionally binds to the target protein, PD1, an ELISA assay was performed.

mPD1 = target: T2, mPD1 (Mus musculus, UniProt Q02242); assay: ELISA binding assay of bacterial extracts (J43-scFv); details: α-V5-HRP
T2 construct: purchased Rndsystems
T2 sequence (Q02242 25-288): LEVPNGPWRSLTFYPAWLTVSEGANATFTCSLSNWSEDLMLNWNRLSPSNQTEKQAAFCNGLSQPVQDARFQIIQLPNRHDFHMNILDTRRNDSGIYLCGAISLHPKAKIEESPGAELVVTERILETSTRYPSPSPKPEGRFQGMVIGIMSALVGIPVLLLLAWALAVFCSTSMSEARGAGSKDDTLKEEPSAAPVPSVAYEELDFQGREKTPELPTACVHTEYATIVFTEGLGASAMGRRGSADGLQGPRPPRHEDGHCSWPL
Protocol: as §1, §2

[2] = target: T3, mPD1 on the surface of EL4 cells (Mus musculus, UniProt Q02242); assay: PDL1 competition assay on EL4 cells (flow cytometry); format: cell-based; details: PDL1 0, 5, 10 and 30 μg/mL
T3 construct: EL4 are a mouse lymphoma cell line which expresses PD1 on its cell surface; endogenous in cells; host or cells: EL4 mouse lymphoma cells
T3 sequence (Q02242 25-288): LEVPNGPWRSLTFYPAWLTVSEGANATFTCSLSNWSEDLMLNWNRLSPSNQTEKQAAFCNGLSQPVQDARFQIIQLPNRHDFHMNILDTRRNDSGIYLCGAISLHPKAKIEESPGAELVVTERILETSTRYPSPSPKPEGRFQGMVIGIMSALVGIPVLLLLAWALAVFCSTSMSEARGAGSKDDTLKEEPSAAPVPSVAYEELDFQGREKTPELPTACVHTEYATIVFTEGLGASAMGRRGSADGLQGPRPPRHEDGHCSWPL
Protocol: Next, a competition assay was conducted to determine whether PDL1 could inhibit the binding of the anti-PD1-scFv secreted by the genetically engineered bacteria from binding to murine PD1. EL4 cells were grown and flow cytometry protocol was conducted essentially as described above except that PDL1 was added at various concentrations (0, 5, 10, and 30 μg/mL) during the incubation of the secreted anti-PD1-scFv-V5. Rat-IgG was used as a negative control of secreted scFv.

[3] = target: T4, murine CD47 on CT26 cells (Mus musculus, UniProt Q61735); assay: Competition assay on CT26 cells (flow cytometry); format: cell-based; details: secreted FD6x2sirpα or FD6sirpαhIgG4
T4 construct: CT26 is a mouse colon carcinoma cell line which expresses CD47 on its cell surface; endogenous in cells; host or cells: CT26 mouse colon carcinoma cells
T4 sequence (Q61735 19-303): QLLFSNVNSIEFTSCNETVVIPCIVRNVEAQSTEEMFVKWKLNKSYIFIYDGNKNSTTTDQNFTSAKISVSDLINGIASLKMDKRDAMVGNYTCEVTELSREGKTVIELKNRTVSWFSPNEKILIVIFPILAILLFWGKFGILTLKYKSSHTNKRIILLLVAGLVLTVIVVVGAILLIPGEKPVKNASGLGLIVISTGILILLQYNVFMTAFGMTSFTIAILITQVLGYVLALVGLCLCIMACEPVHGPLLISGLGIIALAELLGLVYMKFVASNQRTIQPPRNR
Protocol: Next, a competition assay was conducted to determine whether the murine SIRPα secreted by the genetically engineered bacteria could compete with the binding of a recombinant mSIRPα or an anti-CD47 antibody to murine CD47 on CT26 cells. CT26 cells were grown and flow cytometry protocol was conducted essentially as described above except that recombinant SIRPα (Rndsystems) or an anti-CD47 antibody (Biolegend) was added during the incubation of the secreted FD6×2sirpα or FD6sirpαhIgG4. FIG. 29 and FIG. 30 show the results of the competition with recombinant SIRPalpha and anti-CD47 antibody, respectively.

CD47 on mouse CT26 cells = target: T5, CD47 on mouse CT26 cells (Mus musculus, UniProt Q61735); assay: flow cytometric analysis of CD47 expressing CT26 cells incubated with strain supernatants; format: binding
T5 construct: CT26 is a mouse colon carcinoma cell line which expresses CD47 on its cell surface; endogenous in cells; host or cells: CT26 mouse colon carcinoma cells
T5 sequence (Q61735 19-303): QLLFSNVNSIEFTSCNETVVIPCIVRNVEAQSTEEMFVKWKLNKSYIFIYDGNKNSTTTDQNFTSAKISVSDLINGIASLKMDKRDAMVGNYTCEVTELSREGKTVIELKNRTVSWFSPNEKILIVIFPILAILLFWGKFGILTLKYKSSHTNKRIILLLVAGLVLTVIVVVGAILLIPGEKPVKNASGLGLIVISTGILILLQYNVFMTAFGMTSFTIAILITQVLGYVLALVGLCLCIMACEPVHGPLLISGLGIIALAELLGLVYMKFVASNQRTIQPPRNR
Excerpt: FIG. 29 depicts a diagram of a flow cytometric analysis of CT26 cells.
FIG. 30 depicts a diagram of a flow cytometric analysis of CT26 cells.

B1: J43-scFv-V5: single-chain variable fragment based on J43 monoclonal antibody against mouse PD-1, V5 and HIS tagged, expressed in E. coli (protein)
scFv: MQLEVRLLESGGGLVKPEGSLKLSCVASGFTFSDYFMSWVRQAPGKGLEWVAHIYTKSYNYATYYSGSVKGRFTISRDDSRSMVYLQMNNLRTEDTATYYCTRDGSGYPSLDFWGQGTQVTVSSGGGGSGGGGSGGGGSYELTQPPSASVNVGETVKITCSGDQLPKYFADWFHQRSDQTILQVIYDDNKRPSGIPERISGSSSGTTATLTIRDVRAEDEGDYYCFSGYVDSDSKLYVFGSGTQLTVLGKGELNSKLEGKPIPNPLLGLDSTRTGHHHHHH
PD1 on mouse EL4 cells; purified scFv with anti-V5-FITC, two batches
  Binding to EL4 cells: population shift
PD1 on mouse EL4 cells; secreted scFv 0, 2, 5 and 15 μL
  Staining of EL4 cells: dose-dependent staining
PD1 on mouse EL4 cells; secreted scFv with anti-V5-FITC
  Binding to EL4 cells: population shift
[1]; bacterial extract (1/2)
  ELISA signal at 450 nm, IgG coating: 0.11
  ELISA signal at 450 nm, PBS coating: 0.10
[1]; bacterial extract
  ELISA signal at 450 nm, IgG coating: 0.13
  ELISA signal at 450 nm, PBS coating: 0.11
mPD1; bacterial extract (1/2)
  ELISA signal at 450 nm, mPD1 coating: 0.90
mPD1; bacterial extract
  ELISA signal at 450 nm, mPD1 coating: 1.41
[2]
  Competition of PDL1 against binding of secreted scFv: competed in a dose dependent manner

B2: recombinant SIRPalpha: recombinant SIRPα (Rndsystems) (protein)
chain: KELKVTQPEKSVSVAAGDSTVLNCTLTSLLPVGPIRWYRGVGPSRLLIYSFAGEYVPRIRNVSDTTKRNNMDFSIRISNVTPADAGIYYCVKFQKGSSEPDTEIQSGGGTEVYVLAKPSPPEVSGPADRGIPDQKVNFTCKSHGFSPRNITLKWFKDGQELHPLETTVNPSGKNVSYNISSTVRVVLNSMDVNSKVICEVAHITLDRSPLRGIANLSNFIRVSPTVKVTQQSPTSMNQVNLTCRAERFYPEDLQLIWLENGNVSRNDTPKNLTKNTDGTYNYTSLFLVNSSAHREDVVFTCQVKHDQQPAITRNHTVLGFAHSSDQGSMQTFPDNNATHNWN
[3]
  Competition with secreted SIRPalpha for binding to CD47 on CT26 cells: able to compete

B3: murine SIRPalpha: tet-inducible murine SIRPalpha secreted from an E. coli Nissle strain (protein, UniProt P97797 32-513, looked up)
Tyrosine-protein phosphatase …: KELKVTQPEKSVSVAAGDSTVLNCTLTSLLPVGPIRWYRGVGPSRLLIYSFAGEYVPRIRNVSDTTKRNNMDFSIRISNVTPADAGIYYCVKFQKGSSEPDTEIQSGGGTEVYVLAKPSPPEVSGPADRGIPDQKVNFTCKSHGFSPRNITLKWFKDGQELHPLETTVNPSGKNVSYNISSTVRVVLNSMDVNSKVICEVAHITLDRSPLRGIANLSNFIRVSPTVKVTQQSPTSMNQVNLTCRAERFYPEDLQLIWLENGNVSRNDTPKNLTKNTDGTYNYTSLFLVNSSAHREDVVFTCQVKHDQQPAITRNHTVLGFAHSSDQGSMQTFPDNNATHNWNVFIGVGVACALLVVLLMAALYLLRIKQKKAKGSTSSTRLHEPEKNAREITQVQSLIQDTNDINDITYADLNLPKEKKPAPRAPEPNNHTEYASIETGKVPRPEDTLTYADLDMVHLSRAQPAPKPEPSFSEYASVQVQRK
CD47 on mouse CT26 cells; FIG. 29
  competition of binding to CD47 on CT26 cells by recombinant SIRPalpha: recombinant SIRPalpha can compete with the binding
CD47 on mouse CT26 cells; FIG. 30
  competition of binding to CD47 on CT26 cells by anti-CD47 antibody: the antibody can compete with the binding
